These results are taken from US20060142192A1 (ZymoGenetics, published 2006).

Assay [1] concerns the target T1, human ZcytoR21x1 (human, UniProt Q8NFR9 24-667).
T1 construct: also called hcytor21x1; IL-17RE
T1 sequence: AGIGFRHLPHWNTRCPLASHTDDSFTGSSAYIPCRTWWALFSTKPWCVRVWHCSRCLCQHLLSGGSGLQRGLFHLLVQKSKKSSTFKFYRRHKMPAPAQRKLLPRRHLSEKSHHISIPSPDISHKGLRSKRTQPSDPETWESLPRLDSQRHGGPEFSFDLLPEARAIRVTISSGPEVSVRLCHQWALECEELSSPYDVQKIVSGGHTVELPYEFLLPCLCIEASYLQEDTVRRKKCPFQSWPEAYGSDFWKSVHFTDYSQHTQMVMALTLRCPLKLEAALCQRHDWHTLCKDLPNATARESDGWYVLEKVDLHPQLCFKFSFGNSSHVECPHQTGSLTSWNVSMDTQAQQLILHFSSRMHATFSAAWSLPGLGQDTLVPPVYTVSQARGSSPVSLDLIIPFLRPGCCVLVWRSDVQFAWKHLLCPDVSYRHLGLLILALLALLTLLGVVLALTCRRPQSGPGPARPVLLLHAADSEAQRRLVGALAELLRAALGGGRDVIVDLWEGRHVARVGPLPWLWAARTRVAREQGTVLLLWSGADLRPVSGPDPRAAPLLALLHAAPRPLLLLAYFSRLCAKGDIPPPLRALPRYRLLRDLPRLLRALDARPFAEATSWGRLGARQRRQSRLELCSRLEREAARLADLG
In words: flow cytometry, biotinylated IL-17C (1 ug/ml) + streptavidin-PE on stably transfected BHK cells. On the procedure:
(§1) BHK cells stably transfected with human and mouse ZcytoR21 splice variants were plated and grown to confluency in T-75 flasks. Cells were lifted off using a non-protease reagent such as Versene (Invitrogen 15040-066), pelleted, and resuspended in a staining reagent (HBSS+1% BSA+0.1% NaAzide+10 mM HEPES) at 2×10e7 cells/ml and aliquoted to a 96-well Costar plate. IL-17C that has been labeled with biotin was independently added to cells at a concentration of 1 ug/ml. The cell/ligand mixture can be incubated for 1 hr at 4 degrees. The wells were washed 1× in staining reagent, and incubated in a secondary reagent containing staining reagent plus Streptavidin-PE (BD Pharmingen 554061) at a 1:100 ratio. The wells were incubated at 4° C. in the dark for 1 hr, followed by a 2× wash in staining media. The cells were then resuspended in a 1:1 mixture of staining media and Cytofix (BD Bioscience 554655) and incubated 10 minutes at RT. The cells were analysed by Flow Cytometry and by gating on the PE positive events for cells that bound IL-17C.
In general terms: In flow cytometry, cells or beads pass a laser one at a time.

For assay [2], the target named is T2, human ZcytoR21x2 (human, UniProt Q8NFR9 24-667).
T2 construct: also called hcytor21x2
T2 sequence: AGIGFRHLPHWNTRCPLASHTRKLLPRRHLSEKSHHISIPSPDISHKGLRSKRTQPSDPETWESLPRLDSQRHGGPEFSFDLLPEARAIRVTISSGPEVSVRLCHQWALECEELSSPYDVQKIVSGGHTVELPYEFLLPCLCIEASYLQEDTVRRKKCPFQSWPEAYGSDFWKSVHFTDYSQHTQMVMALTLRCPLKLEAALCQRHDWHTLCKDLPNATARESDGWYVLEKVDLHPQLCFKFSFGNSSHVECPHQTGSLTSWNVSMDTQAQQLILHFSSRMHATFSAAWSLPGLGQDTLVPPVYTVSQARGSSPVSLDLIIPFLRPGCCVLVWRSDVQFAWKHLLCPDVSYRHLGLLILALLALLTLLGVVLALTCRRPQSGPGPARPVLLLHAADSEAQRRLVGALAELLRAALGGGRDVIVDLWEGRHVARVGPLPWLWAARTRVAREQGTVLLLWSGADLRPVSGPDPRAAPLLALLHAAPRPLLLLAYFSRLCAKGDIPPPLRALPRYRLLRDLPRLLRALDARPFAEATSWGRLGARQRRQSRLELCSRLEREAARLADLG
The description is as above. The protocol: as §1

The next assay deals with T3, human ZcytoR21x6 (human, UniProt Q8NFR9 24-667).
T3 construct: also called hcytor21x6
T3 sequence: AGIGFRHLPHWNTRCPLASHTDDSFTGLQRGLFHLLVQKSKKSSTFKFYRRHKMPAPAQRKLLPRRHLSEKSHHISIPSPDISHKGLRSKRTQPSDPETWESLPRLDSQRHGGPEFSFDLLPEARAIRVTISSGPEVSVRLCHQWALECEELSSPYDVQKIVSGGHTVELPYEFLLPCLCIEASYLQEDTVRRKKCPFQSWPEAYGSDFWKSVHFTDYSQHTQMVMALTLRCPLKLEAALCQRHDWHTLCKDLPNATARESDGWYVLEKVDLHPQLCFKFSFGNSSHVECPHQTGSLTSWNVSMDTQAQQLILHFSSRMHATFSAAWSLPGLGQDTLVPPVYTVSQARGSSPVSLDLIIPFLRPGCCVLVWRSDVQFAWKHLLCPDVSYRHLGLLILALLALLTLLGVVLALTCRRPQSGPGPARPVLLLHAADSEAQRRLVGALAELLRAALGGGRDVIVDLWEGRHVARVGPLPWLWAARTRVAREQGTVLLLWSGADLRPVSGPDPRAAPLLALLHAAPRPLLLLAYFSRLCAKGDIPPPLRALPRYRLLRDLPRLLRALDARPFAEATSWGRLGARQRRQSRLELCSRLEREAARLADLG
Described as above. On the procedure: as §1

The target in the next assay is T4, human ZcytoR21x13 (human, UniProt Q8NFR9 24-667).
T4 construct: also called hcytor21x13
T4 sequence: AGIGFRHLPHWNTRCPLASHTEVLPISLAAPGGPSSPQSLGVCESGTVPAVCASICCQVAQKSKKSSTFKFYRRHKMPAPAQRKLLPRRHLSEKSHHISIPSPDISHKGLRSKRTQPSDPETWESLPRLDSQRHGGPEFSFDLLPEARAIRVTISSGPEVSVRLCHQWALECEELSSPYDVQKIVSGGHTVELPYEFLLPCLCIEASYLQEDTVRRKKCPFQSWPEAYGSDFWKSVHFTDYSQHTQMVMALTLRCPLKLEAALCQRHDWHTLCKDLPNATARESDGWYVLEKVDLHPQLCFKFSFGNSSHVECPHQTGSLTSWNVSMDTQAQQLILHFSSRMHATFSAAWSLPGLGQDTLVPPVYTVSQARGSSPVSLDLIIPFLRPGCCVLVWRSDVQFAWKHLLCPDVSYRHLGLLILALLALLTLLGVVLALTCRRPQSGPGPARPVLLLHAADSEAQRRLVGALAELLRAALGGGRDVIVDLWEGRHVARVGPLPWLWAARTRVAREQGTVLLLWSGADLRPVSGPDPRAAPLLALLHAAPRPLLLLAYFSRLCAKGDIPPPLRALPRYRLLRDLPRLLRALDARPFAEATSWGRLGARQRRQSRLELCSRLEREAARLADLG
Described as above. The protocol: as §1

The target in a further assay is T5, murine ZcytoR21x6 (mouse, UniProt Q8BH06 24-637).
T5 construct: also called mouse ZcytoR21x6; mcytor21x6
T5 sequence: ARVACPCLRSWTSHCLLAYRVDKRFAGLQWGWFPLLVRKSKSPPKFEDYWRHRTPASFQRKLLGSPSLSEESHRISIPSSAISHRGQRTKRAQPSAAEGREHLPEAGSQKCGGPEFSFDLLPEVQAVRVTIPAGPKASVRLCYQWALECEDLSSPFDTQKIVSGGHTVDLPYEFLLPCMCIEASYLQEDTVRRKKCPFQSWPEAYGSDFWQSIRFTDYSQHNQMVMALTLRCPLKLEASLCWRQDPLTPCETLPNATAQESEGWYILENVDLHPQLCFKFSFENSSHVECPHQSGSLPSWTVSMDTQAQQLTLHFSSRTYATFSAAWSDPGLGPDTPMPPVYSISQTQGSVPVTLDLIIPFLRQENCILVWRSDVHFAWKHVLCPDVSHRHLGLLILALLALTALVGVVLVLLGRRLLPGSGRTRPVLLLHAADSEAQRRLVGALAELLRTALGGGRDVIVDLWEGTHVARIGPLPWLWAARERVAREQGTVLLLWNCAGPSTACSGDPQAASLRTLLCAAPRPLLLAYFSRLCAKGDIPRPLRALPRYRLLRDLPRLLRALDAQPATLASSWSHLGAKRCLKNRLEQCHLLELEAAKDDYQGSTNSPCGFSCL
The assay is described as above. On the procedure:
as §1

In assay [3] the target is T1, human ZcytoR21x1. In words: flow cytometry, biotinylated ligand + streptavidin-PE on stably transfected BHK cells.
The target in assay [4] is T2, human ZcytoR21x2. The description is as above.

B1: murine IL-17C (ligand)
chain: DPPSWGKPRSHRTLRCYSAEELSHGQAPPHLLTRSARWEQALPVALVASLEATGHRRQHEGPLAGTQCPVLRPEEVLEADTHERSISPWRYRIDTDENRYPQKLAVAECLCRGCINAKTGRETAALNSVQLLQSLLVLRRQPCSRDGTADPTPGSFAFHTEFIRVPVGCTCVLPRSTQ
modifications: biotin label in the binding assays (sites not given); unlabelled in the signalling assays
notes: also called mouse IL-17C; IL-17CmCH6
As for B1, the binding result in the assay with human ZcytoR21x1 [1], in the assay with human ZcytoR21x2 [2], with human ZcytoR21x6, in the assay with human ZcytoR21x13 and with murine ZcytoR21x6 was “binds” in each case.

B2: human IL-17F (biotinylated) (ligand, UniProt Q96PD4 31-163, looked up)
chain: RKIPKVGHTFFQKPESCPPVPGGSMKLDIGIINENQRVSMSRNIESRSTSPWNYTVTWDPNRYPSEVVQAQCRNLGCINAQGKEDISMNSVPIQQETLVVRRKHQGCSVSFQLEKVLVTVGCTCVTPVIHHVQ
modifications: biotin label (sites not given)
With B2, the binding result with human ZcytoR21x1 [3] and with human ZcytoR21x2 [4] was “no binding” throughout.

B3: human IL-17B (biotinylated) (ligand, UniProt Q9UHF5 21-180, looked up)
chain: QPRSPKSKRKGQGRPGPLAPGPHQVPLDLVSRMKPYARMEEYERNIEEMVAQLRNSSELAQRKCEVNLQLWMSNKRSLSPWGYSINHDPSRIPVDLPEARCLCLGCVNPFTMQEDRSMVSVPVFSQVPVRRRLCPPPPRTGPCRQRAVMETIAVGCTCIF
modifications: biotin label (sites not given)
Consider B3, for which the binding result in the assay with human ZcytoR21x1 [3] and with human ZcytoR21x2 [4] was “no binding” in each case.

B4: human IL-17D (biotinylated) (ligand, UniProt Q8TAD2 18-202, looked up)
chain: APRAGRRPARPRGCADRPEELLEQLYGRLAAGVLSAFHHTLQLGPREQARNASCPAGGRPADRRFRPPTNLRSVSPWAYRISYDPARYPRYLPEAYCLCRGCLTGLFGEEDVRFRSAPVYMPTVVLRRTPACAGGRSVYTEAYVTIPVGCTCVPEPEKDADSINSSIDKQGAKLLLGPNDAPAGP
modifications: biotin label (sites not given)
Consider B4, for which the binding result with human ZcytoR21x1 [3] and in the assay with human ZcytoR21x2 [4] was “no binding” throughout.
